Test [1] deals with SARS-CoV-2 spike South African Δ3 B.1.351 variant (pseudovirus RVP-724) (SARS-CoV-2) (UniProt P0DTC2). The test is described as follows: cell-based or functional assay.
Test [2] concerns the target SARS-CoV-2 spike N439K variant (pseudovirus RVP-703) (SARS-CoV-2) (UniProt P0DTC2). Put plainly: cell-based or functional assay.

“And” between values parts separate entries of the source, which are not always exact repeats. Identical values can stand only once.

Regarding REGN10987 (antibody), the EC50 (pM) Neutralization, pseudovirus was 2.48 pM and 2.37 pM in test [1]; 2260 pM and 2220 pM in test [2].

For the origin of these results see US20250179183A1.
